Source: PMC13013135, “[^99mTc]Tc-PSMA-HSG for PSMA-targeted Hybrid Surgical Guidance: a new addition to the PSMA-I&S/I&T family” (European Journal of Nuclear Medicine and Molecular Imaging, 2025)
Where “and” joins values, the source holds several entries; their conditions need not be identical. Equal entries are not always repeated. Where two headings read alike, the source gives them in different places.

Experiments:
[1] = tested on: PSMA expressing LNCaP cells; experiment: Dual tracer internalization assay; assay type: cell-based, human; conditions: 60 min, 37 °C, 0.5 nM tracer, normalized to ([^125I]IBA)KuE
Procedure: Competitive binding experiments (IC50) were carried out in accordance with an established protocol using PSMA-expressing LNCaP cells and ([^125I]I-BA)KuE as standard radioligand. […] Please see the Supplementary Material for experimental details. […] The supernatant was removed, cells were washed with assay medium, and an acid wash (50 mM NaOAc in saline, pH 4.5) was performed to remove membrane-associated activity. Cells were then lysed using 1N NaOH, and internalized activity was quantified using a γ-counter. […] Tocris Bioscience, Bristol, UK) and normalized to the specific internalization observed for the radioiodinated reference compound in the same experiment. Data represent means ± SD (n=3) from three separate determinations.

in vivo = conditions: mouse, in vivo
Procedure: The biodistribution of [^99mTc]Tc-PSMA-HSG and of the reference compound [^99mTc]Tc-PSMA-I&S was investigated in LNCaP xenograft bearing NSG mice (see supplemental information).
Mice were injected intravenously with the respective ^99mTc-labeled tracer (24–34 MBq (fixed peptide dose of 1 nmol/mouse) or 3.7–7.6 MBq (fixed peptide doses of 0.1 nmol/mouse), respectively) and were sacrificed at 2 h (1 nmol-cohort) or 6 h p.i. (0.1 nmol-cohort), respectively. The organs of interest were dissected, and the activity concentration in weighed tissue samples was quantified using an AMG Automatic Gamma Counter (Hidex, Turku, Finland). Biodistribution data are given in %iD/g and represent means ± SD (groups of n = 5 animals). Statistical analysis (Multiple unpaired t-test) of biodistribution data and tumor/organ ratios was performed using GraphPad Prism (Boston, USA).
To induce LNCaP tumor growth, a suspension of LNCaP cells (approx. 5 x 10^6 cells/mouse) in 200 μl of a 1:1 mixture of serum-free DMEM and Matrigel (BD Biosciences) was injected subcutaneously into the right shoulder of male NOD scid gamma (NSG) mice (6-8 weeks, in-house breeding, Dpt. of Oncology, University of Lausanne). After approximately 9 weeks, tumor size reached 4-8 mm in diameter and the mice were used for the in vivo studies.

[2] = tested on: LNCaP xenograft bearing NSG mice; experiment: Small animal SPECT/CT with 2-PMPA blocking; assay type: in vivo, mouse; conditions: 1 nmol peptide, 1 µmol 2-PMPA, SPECT/CT 2–4 h p.i.
Procedure: SPECT/CT images were acquired using an Albira Si PET/SPECT/CT (Bruker Biospin Corporation, Woodbridge, CT, USA) instrument. Mice were injected with the respective ^99mTc-labeled tracer (24–34 MBq; the injected peptide amount was kept constant at 1 nmol/animal), with (blocking) or without (control) coinjection of 226 µg (1 µmol) 2-PMPA. […] For SPECT imaging, static acquisitions of 2 h (accumulation of 1–2 × 10^6 events) were acquired with the following parameters: photopeak at 140 keV ± 30%, axial FOV 82.5 mm using a single pinhole collimator. For reconstruction, an ordered subset expectation-maximization algorithm (OSEM) with two iterations was used, and scatter correction was applied. For CT, the following parameters were used: 400 µA intensity and 35 kV voltage, 600 projections. Images were reconstructed using a filtered back-projection (FBP) algorithm with de-ringing correction. Fused representative SPECT/CT images were acquired using the PMOD software (PMOD technologies, version 3.709, Zurich, Switzerland).

[3] = Lipophilicity, modified shake-flask method; assay type: physicochemical
Procedure: The lipophilicity of [^99mTc]Tc-PSMA-HSG was determined via a modified shake-flask method as described.

PSMA = PSMA (Homo sapiens, UniProt Q04609); assay type: in vivo; set-up: Five patients with a diagnosis of initial (n = 4) or biochemical recurrence of (n = 1) histologically proven prostate cancer; from tissue; host or cells: prostate cancer patients: primary tumour, lymph nodes, resected tissue sections
Chain of PSMA (Q04609 whole entry): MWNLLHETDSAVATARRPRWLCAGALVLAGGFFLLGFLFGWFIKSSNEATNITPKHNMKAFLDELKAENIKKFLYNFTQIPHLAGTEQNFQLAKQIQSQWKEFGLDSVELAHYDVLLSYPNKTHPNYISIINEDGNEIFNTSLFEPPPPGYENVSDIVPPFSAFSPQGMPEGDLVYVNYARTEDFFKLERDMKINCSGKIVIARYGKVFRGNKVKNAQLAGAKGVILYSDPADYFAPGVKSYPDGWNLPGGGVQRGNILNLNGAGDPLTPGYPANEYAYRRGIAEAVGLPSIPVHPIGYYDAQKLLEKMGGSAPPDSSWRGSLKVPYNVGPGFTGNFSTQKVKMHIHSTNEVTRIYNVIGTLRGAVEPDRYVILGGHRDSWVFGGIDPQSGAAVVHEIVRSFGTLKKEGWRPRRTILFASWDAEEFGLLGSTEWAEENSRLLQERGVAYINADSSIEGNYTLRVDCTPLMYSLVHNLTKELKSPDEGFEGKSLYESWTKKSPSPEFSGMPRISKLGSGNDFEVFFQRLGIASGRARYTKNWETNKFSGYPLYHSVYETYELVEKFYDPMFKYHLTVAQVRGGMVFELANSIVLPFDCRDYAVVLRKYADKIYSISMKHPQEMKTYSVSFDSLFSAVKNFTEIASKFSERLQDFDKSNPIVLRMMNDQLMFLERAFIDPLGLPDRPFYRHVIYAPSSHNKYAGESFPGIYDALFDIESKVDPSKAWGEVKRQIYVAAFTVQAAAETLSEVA
Description: For all patients, radioguided surgery had been recommended by the local multidisciplinary tumor board. […] Attenuation maps were generated on the basis of low-dose CT. For a detailed protocol of imaging parameters and the dosimetry protocol please refer to the Supplementary Material. […] A scatter window ranging from 114 to 126 keV was additionally acquired for planar and SPECT imaging. For SPECT, the imaging field of view was from neck to upper thighs. At each bed position, 60 views were acquired, with a duration of 8 s each. Subsequently, images were reconstructed using an ordered subset expectation maximisation (OSEM) algorithm (2 iterations and 10 subsets) with a Butterworth filter (fc = 0.48, n = 10). Scatter and attenuation correction was applied. For whole-body planar imaging, a scan speed of 30 cm/min was employed until 60 min post-injection, after which the acquisition speed was moderated to 12 cm/min for any further data collection.

[4] = exploratory cohort, five patients
[5] = subjects with newly diagnosed PCa

For `C[N+]1=C(/C=C/C=C/C=C2/N(CCCCCC(=O)NCCCC[C@@H](NC(=O)[C@@H](CO)NC(=O)[C@@H](CO)NC(=O)[C@@H](CO)NC(=O)CS)C(=O)N[C@H](Cc3ccc(O)cc3)C(=O)N[C@H](Cc3ccc4ccccc4c3)C(=O)N[C@H](CCCCNC(=O)CCCCCCC(=O)NCCCC[C@H](NC(=O)N[C@@H](CCC(=O)O)C(=O)O)C(=O)O)C(=O)O)c3ccc(S(=O)(=O)[O-])cc3C2(C)C)C(C)(C)c2cc(S(=O)(=O)O)ccc21` [[^99mTc]Tc-PSMA-HSG, metal not drawn], the “internalization [% of reference]” value [1] was 14 ± 1 % of reference, the tissue uptake at 6 h (in vivo; male, NOD scid gamma (NSG), iv, 0.1 nmol/mouse, total radioactivity, biodistribution, liver) was 2.5 ± 0.4 %ID/g and the tissue uptake at 6 h (in vivo; male, NOD scid gamma (NSG), iv, 0.1 nmol/mouse, total radioactivity, biodistribution, lung) was 2.5 ± 0.5 %ID/g. It also gave a tissue uptake at 6 h (in vivo; male, NOD scid gamma (NSG), iv, 0.1 nmol/mouse, total radioactivity, biodistribution, pancreas) of 0.8 ± 0.3 %ID/g, a tissue uptake at 6 h (in vivo; male, NOD scid gamma (NSG), iv, 0.1 nmol/mouse, total radioactivity, biodistribution, spleen) of 9.7 ± 3.8 %ID/g and a tissue uptake at 6 h (in vivo; male, NOD scid gamma (NSG), iv, 0.1 nmol/mouse, total radioactivity, biodistribution, stomach) of 1.1 ± 0.2 %ID/g. The tissue uptake at 2 h (in vivo; male, NOD scid gamma (NSG), iv, 1 nmol/mouse, total radioactivity, biodistribution, liver) was 3.3 ± 0.3 %ID/g, the tissue uptake at 2 h (in vivo; male, NOD scid gamma (NSG), iv, 1 nmol/mouse, total radioactivity, biodistribution, lung) was 2.8 ± 0.3 %ID/g and the tissue uptake at 2 h (in vivo; male, NOD scid gamma (NSG), iv, 1 nmol/mouse, total radioactivity, biodistribution, pancreas) was 0.8 ± 0.1 %ID/g. The tissue uptake at 2 h (in vivo; male, NOD scid gamma (NSG), iv, 1 nmol/mouse, total radioactivity, biodistribution, spleen) was 5.2 ± 1.9 %ID/g, the tissue uptake at 2 h (in vivo; male, NOD scid gamma (NSG), iv, 1 nmol/mouse, total radioactivity, biodistribution, stomach) was 1.6 ± 0.1 %ID/g and the tissue to tissue ratio at 6 h (in vivo; male, NSG, iv, 0.1 nmol/mouse, total radioactivity) was 0.12 ± 0.02. For the same compound, the tissue uptake at 6 h (in vivo; male, NSG, iv, 0.1 nmol/mouse, total radioactivity, biodistribution, LNCaP tumor) was 19.8 ± 6.6 %ID/g, the tissue uptake at 6 h (in vivo; male, NSG, iv, 0.1 nmol/mouse, total radioactivity, biodistribution, blood) was 1.3 ± 0.3 %ID/g and the tissue uptake at 6 h (in vivo; male, NSG, iv, 0.1 nmol/mouse, total radioactivity, biodistribution, heart) was 0.7 ± 0.2 %ID/g. For the same compound, the tissue uptake at 6 h (in vivo; male, NSG, iv, 0.1 nmol/mouse, total radioactivity, biodistribution, intestines) was 1.3 ± 0.2 %ID/g, the tissue uptake at 6 h (in vivo; male, NSG, iv, 0.1 nmol/mouse, total radioactivity, biodistribution, kidneys) was 148 ± 17 %ID/g and the tissue uptake at 6 h (in vivo; male, NSG, iv, 0.1 nmol/mouse, total radioactivity, biodistribution, muscle) was 0.4 ± 0.06 %ID/g. The tissue uptake at 6 h (in vivo; male, NSG, iv, 0.1 nmol/mouse, total radioactivity, biodistribution, salivary glands) was 4 ± 1.2 %ID/g, the tissue to tissue ratio at 2 h (in vivo; male, NSG, iv, 1 nmol/mouse, total radioactivity) was 0.2 ± 0.03 and the tissue uptake at 2 h (in vivo; male, NSG, iv, 1 nmol/mouse, total radioactivity, biodistribution, LNCaP tumor) was 12.1 ± 0.9 %ID/g. It also gave a tissue uptake at 2 h (in vivo; male, NSG, iv, 1 nmol/mouse, total radioactivity, biodistribution, blood) of 2.4 ± 0.3 %ID/g, a tissue uptake at 2 h (in vivo; male, NSG, iv, 1 nmol/mouse, total radioactivity, biodistribution, heart) of 1.3 ± 0.2 %ID/g and a tissue uptake at 2 h (in vivo; male, NSG, iv, 1 nmol/mouse, total radioactivity, biodistribution, intestines) of 1 ± 0.1 %ID/g. It also gave a tissue uptake at 2 h (in vivo; male, NSG, iv, 1 nmol/mouse, total radioactivity, biodistribution, kidneys) of 61.7 ± 7.2 %ID/g, a tissue uptake at 2 h (in vivo; male, NSG, iv, 1 nmol/mouse, total radioactivity, biodistribution, muscle) of 0.5 ± 0.04 %ID/g and a tissue uptake at 2 h (in vivo; male, NSG, iv, 1 nmol/mouse, total radioactivity, biodistribution, salivary glands) of 4.2 ± 0.5 %ID/g. The tissue uptake at 6 h (in vivo; Tumor uptake in mice) was 11.8 ± 1.5 %ID/g, the “PSMA-specificity of tumor uptake, coinjection of 2-PMPA” value [2] was “successfully blocked tumor accumulation” and the logD [3] was -2.94. The scintigraphy findings (PSMA; Patient #1, 53 µg) was “Two positive LN in the right and left external iliac region”, the scintigraphy findings (PSMA; Patient #2, 53 µg) was “Moderate tracer uptake of the primary No positive LN” and the scintigraphy findings (PSMA; Patient #3, 53 µg) was “Moderate tracer uptake of the primary No positive LN”. For the same compound, the scintigraphy findings (PSMA; Patient #4, 350 µg) was “No discernible tracer uptake of the primary No discernible tracer uptake in the right iliac LN”, the scintigraphy findings (PSMA; Patient #5, 250 µg) was “Moderate tracer uptake of the primary No positive LN” and the “negative predictive value (NPV) of SPECT/CT” value (PSMA; [4]) was 94%. The “positive predictive value (PPV) of SPECT/CT” value (PSMA; [4]) was 100%, the “sensitivity of SPECT/CT” value (PSMA; [4]) was 33% and the “specificity of SPECT/CT” value (PSMA; [4]) was 100%. The “clearance in patients, visual image analysis” value (PSMA; human, in vivo) was “swift activity clearance from blood/background via rapid renal excretion”, the “intestinal accumulation in patients” value (PSMA; human, in vivo) was “Virtually no intestinal accumulation” and the “PET-suspicious lymph nodes positive in scintigraphy” value (PSMA; [5]) was 2/10. The “primary tumor delineated / visualized” value (PSMA; [5]) was 3 out of 4 and 3/4.
